The results in this text go back to patent US20070212355A1 (priority 2005, published 2007).

Substitutions are numbered along the chain they refer to. Names may count otherwise. Read-outs that look alike come from different tables or passages of the source. Ends that are not written are not given here.

Data set [1] can be described thus: CD spectra secondary structure of peptides. The conditions noted are these: 0.2 mg/mL in PBS, 25° C. The data set is classed as physicochemical. The procedure: The secondary structures of tested peptides were determined using 0.2 mg/mL peptide solutions in PBS. Briefly, CD spectra were collected in triplicate at 1 nm intervals at 25° C. in 0.1 cm path length cell. Secondary structures were determined by fitting of the CD spectra using CD spectra software (CD Spectra Deconvolution software 2.1). All tested peptides contained peaks corresponding to the presence of alpha helices.

A short description of data set [2]: SEC-SLS self-association of peptides in PBS (pH 7.5). It counts as physicochemical. The note with it: 1 mg/ml. Here is the method: The self-association poses a challenge to the development and manufacturing of a homogeneous therapeutic.
Solution molecular weight of the peptides was measured by SEC-SLS. Briefly, peptide solutions in PBS (pH 7.5) at 0.4 to 2.0 mg/mL were fractionated over a Superdex peptide column (Amersham Pharmacia). The eluted peaks were monitored by static light scattering at 690 nm and solution molecular weight was determined at UV 280 nm using the Astra software package (Wyatt Inc.).

Data set [3] deals with T1, mutated human GLP-2R (Homo sapiens, UniProt O95838, E512D/G511A/L513V).
T1 construct: expressed in transfected cells; host or cells: HEK 293E clonal cell line
T1 sequence (O95838 1-553 G511A/E512D/L513V): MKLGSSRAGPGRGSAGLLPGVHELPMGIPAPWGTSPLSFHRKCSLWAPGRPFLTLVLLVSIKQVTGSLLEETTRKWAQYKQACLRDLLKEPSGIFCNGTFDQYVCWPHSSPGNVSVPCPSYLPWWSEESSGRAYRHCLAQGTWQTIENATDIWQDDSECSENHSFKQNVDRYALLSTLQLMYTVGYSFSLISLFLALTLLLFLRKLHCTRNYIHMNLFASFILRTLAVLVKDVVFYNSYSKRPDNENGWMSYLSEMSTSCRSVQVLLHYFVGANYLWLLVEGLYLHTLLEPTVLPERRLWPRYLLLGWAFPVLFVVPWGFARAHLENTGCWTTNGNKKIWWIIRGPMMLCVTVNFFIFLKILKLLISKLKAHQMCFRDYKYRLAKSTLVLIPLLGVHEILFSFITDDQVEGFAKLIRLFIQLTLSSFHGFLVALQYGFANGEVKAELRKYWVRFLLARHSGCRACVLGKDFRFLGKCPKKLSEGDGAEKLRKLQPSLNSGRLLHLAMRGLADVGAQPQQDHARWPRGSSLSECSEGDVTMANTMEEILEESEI
As to the kind of experiment: cAMP expression assay in HEK 293E clonal cell line expressing mutated human GLP-2R. It counts as cell-based. The note with it: for activity relative to wild type GLP-2 (times less): from Table 5 EC50 values. An excerpt: To achieve this goal, a clonal cell line expressing a mutated human GLP-2R was generated by transfecting HEK 293E cells. The mutated human GLP-2R differs from the wild-type human GLP-2R (SEQ ID NO: 35) at three amino acid positions within the C-terminal intracellular region (SEQ ID NO: 36).
The cAMP expression was quantitated using the cAMP Direct Screen System (Cat. No. CSD 200, Applied Biosystems, Bedford, Mass.).
This assay was based on the cAMP Direct Screen System from Applied Biosystems utilizing a cell line expressing mutated huGLP-2R in HEK 293E cells. Peptide at concentrations ranging from 0.01 nM to 1.0 uM in PBS with 0.5% BSA was added to ˜50,000 cells suspended in 96-well plates. After a 30-minute incubation at 37° C., Lysis Buffer followed by luminescence reagents (Applied Biosystems) was added according to the manufacturers' procedures (Applied Biosystems Luminescence protocol: cAMP-Screen Direct System). Luminescence was quantitated using a TopCount liquid scintillation analyzer (PerkinElmer), and data was processed using Softmax software (Molecular Devices Corporation).

Data set [4] concerns the target mutated human GLP-2R (human) (UniProt O95838). Nature of the data set: cell-based or functional assay.
Data set [5] deals with the molecule itself. As to the kind of experiment: SEC-SLS, self-association in PBS pH 7.5.
The target in data set [6] is T2, mutated human GLP-2R (human, UniProt O95838 1-553).
T2 chain: T1 sequence (O95838 1-553 G511A/E512D/L513V)
Nature of the data set: cell-based or functional assay.

The target in data set [7] is T2, mutated human GLP-2R. Nature of the data set: cell-based or functional assay.
Setting [8] is: Table 1, mimetibodies with variable linker length / V2 variant, read-out: EC50.
Setting [9] is: Table 2, mimetibodies with Pro substitution, read-out: EC50.

Turning to “HGDGSFSDEMNTILDNQAARDFINWLIQTKITD [SEQ ID NO: 54]”, the “Random coil (percentage)” value in data set [1] came out at 41.8%. In data set [1] (listed as GLP-2(A2G, L17Q)), the “Helix (percentage of helical structure)” value was determined as 16.9%. For the same molecule, in data set [2], the “SEC-SLS elution / self-association state” value is given as “mainly monomeric peptide”. Besides, the “activity relative to wild type GLP-2 (times less)” value in data set [3] was 3 ×.

One may read the EC50 as the concentration needed to bring the measured effect to its halfway point. With “SEQ ID NO: 11: A2G GLP-2 mimetibody V2 region variant; core […] (HGDGSFSDEMNTILDNLAARDFINWLIQTKITDGSGGGSGALVAVSSESKYGPPCPPCP; chains of the parent or of the whole protein)”, the EC50 in data set [3] (setting [8]) was 3.1 nM.

Turning to “SEQ ID NO: 42: GLP-2 mimetibody Pro substitution variant; core HGDGSFSDEMNTILDNLAARDFINWLIQTKITDGSGGGSGALVPVSSESKYGPPCPPCP (Mimetibody)”, the EC50 in data set [3] (setting [9]) turned out to be 3.6 nM.

With “SEQ ID NO: 79: GLP-1 peptide included as control in the characterization of the analogs [reference compound]”, in data set [1], the “Helix (percentage of helical structure)” value amounted to 16.8% and the “Random coil (percentage)” value was determined as 41.9%. Further, the “SEC-SLS elution / self-association state” value in data set [2] is “single peak with molecular weight within the expected monomer size”.

Regarding “HSDGSFSDEMNTILDNLAARDFINWLIQTKITD [SEQ ID NO: 2, reference compound]”, the EC50 in data set [3] (Example 2, 30 minutes incubation, mimetibodies vs corresponding peptides, read-out: EC50, stimulation of cAMP expression) amounted to 0.5 nM.

Regarding “SEQ ID NO: 8: A2G GLP-2 mimetibody linker variant; core HGDGSFSDEMNTILDNLAARDFINWLIQTKITDGGGGSGGGGSGGGGSCPPCP (cysteine pairing not given here; also: core of a mimetibody, fused to further protein chains)”, the EC50 in data set [3] (setting [8]) turned out to be 12.7 nM.

With “SEQ ID NO: 7: A2G GLP-2 mimetibody linker variant; core HGDGSFSDEMNTILDNLAARDFINWLIQTKITDGGGGSGGGGSCPPCP (cysteine pairing not given here; also: core of a mimetibody, fused to further protein chains)”, the EC50 in data set [3] (setting [8]) came to 22.5 nM.

As for “HGDGSFSDEMNTILDGQAARDFINWLIQTKITD [SEQ ID NO: 55]”, in data set [1], the “Random coil (percentage)” value turned out to be 41.4%. The “Helix (percentage of helical structure)” value in data set [1] (listed as GLP-2(A2G, N16G, L17Q)) amounted to 17.0%. Also, in data set [2], the “SEC-SLS elution / self-association state” value was “mainly monomeric peptide”. For the same molecule, the “activity relative to wild type GLP-2 (times less)” value in data set [3] turned out to be 2 ×.

As for “SEQ ID NO: 6: A2G GLP-2 mimetibody linker variant; core HGDGSFSDEMNTILDNLAARDFINWLIQTKITDGGGGSCPPCP (cysteine pairing not given here; also: core of a mimetibody, fused to further protein chains)”, in data set [3] (setting [8]), the EC50 worked out at 40 nM.

As to “SEQ ID NO: 45: GLP-2 mimetibody Pro substitution variant; core […] (HGDGSFSDEMNTILDNLAARDFINWLIQTKITDGSGGGSGALVAVSSESKPGPPCPPCP)”, the EC50 in data set [3] (setting [9]) turned out to be 5.8 nM.

As to “SEQ ID NO: 9: A2G GLP-2 mimetibody linker variant; core HGDGSFSDEMNTILDNLAARDFINWLIQTKITDGGGGSGGGGSGGGGSGGGGSCPPCP (cysteine pairing not given here; also: core of a mimetibody, fused to further protein chains)”, in data set [3] (setting [8]), the EC50 came out at 4.6 nM.

B1: A2G GLP-2 mimetibody linker length variant SEQ ID NO: 7 (Fc fusion, part only; not given: Fc CH2 and CH3 domains, part only)
chain, part: HGDGSFSDEMNTILDNLAARDFINWLIQTKITDGGGGSGGGGSCPPCP
modifications: cysteine pairing not given here; also: partial core, CH2-CH3 domains follow in the full mimetibody
In the case of B1, the EC50 (nM), cAMP expression assay in data set [4] is 22.5 nM.

B2: GLP-2(A2G, N16G, L17Q) (peptide)
peptide: HGDGSFSDEMNTILDGQAARDFINWLIQTKITD
notes: Synthetic analog of human GLP-2, >95% purity; also called GLP-2(A2G,N16G, L17Q) peptide
B2: the binding result in data set [5] was “no binding (tested: 1 mg/ml)”. Also, the “activity in cAMP expression assay, fold less than wild type GLP-2” value in data set [6] stood at 2 fold. Besides, the “cAMP in Vitro EC50 values” in data set [7] stood at 3.5 nM.

B3: A2S GLP-2 peptide (peptide)
peptide: B2 peptide with G2S, G16N, Q17L
For B3, the “EC50, cAMP expression” value in data set [6] turned out to be 0.5 nM.

B4: A2G GLP-2 mimetibody linker length variant SEQ ID NO: 6 (Fc fusion, part only; not given: CH2 and CH3 domains, part only)
chain, part: HGDGSFSDEMNTILDNLAARDFINWLIQTKITDGGGGSCPPCP
modifications: cysteine pairing not given here; also: partial core, CH2-CH3 domains follow in the full mimetibody
B4 had an EC50 (nM), cAMP expression assay in data set [4] of 40 nM.

B5: A2G GLP-2 mimetibody linker length variant SEQ ID NO: 9 (Fc fusion, part only; not given: CH2 and CH3 domains, part only)
chain, part: HGDGSFSDEMNTILDNLAARDFINWLIQTKITDGGGGSGGGGSGGGGSGGGGSCPPCP
modifications: cysteine pairing not given here; also: partial core, CH2-CH3 domains follow in the full mimetibody
On to B5, for which the EC50 (nM), cAMP expression assay in data set [4] turned out to be 4.6 nM.

B6: A2S GLP-2 IgG4 mimetibody (Fc fusion)
chain: HSDGSFSDEMNTILDNLAARDFINWLIQTKITDGSGGGSGTLVTVSSESKYGPPCPPCPAPEAAGGPSVFLFPPKPDTLMISRTPEVTCVVVDVSQEDPEVQFNWYVDGVEVHNAKTKPREEQFNSTYRVVSVLTVLHQDWLNGKEYKCKVSNKGLPSSIEKTISKAKGQPREPQVYTLPPSQEEMTKNQVSLTCLVKGFYPSDIAVEWESNGQPENNYKTTPPVLDSDGSFFLYSRLTVDKSRWQEGNVFSCSVMHEALHNHYTQKSLSLSLGK
Turning to B6, in data set [6], the “EC50, cAMP expression” value was 2.2 nM and the “potency in cAMP expression assay, fold less than the corresponding peptide” value is roughly 4 fold.

B7: A2G GLP-2 mimetibody V2 region variant SEQ ID NO: 11 (Fc fusion, not shown: a dimerising Fc or GST)
chain: HGDGSFSDEMNTILDNLAARDFINWLIQTKITDGSGGGSGALVAVSSESKYGPPCPPCP
As to B7, the EC50 (nM), cAMP expression assay in data set [4] was 3.1 nM.

B8: GLP-2 mimetibody Pro substitution variant SEQ ID NO: 42 (Fc fusion, not shown: a dimerising Fc or GST)
chain: B7 chain with A44P
Turning to B8, the EC50 (nM), cAMP expression assay in data set [4] turned out to be 3.6 nM.

B9: GLP-2 mimetibody Pro substitution variant SEQ ID NO: 43 (Fc fusion, not shown: a dimerising Fc or GST)
chain: B7 chain with S46P
Take B9: the EC50 (nM), cAMP expression assay in data set [4] came to 4.8 nM.

B10: GLP-2 mimetibody Pro substitution variant SEQ ID NO: 45 (Fc fusion, not shown: a dimerising Fc or GST)
chain: B7 chain with Y51P
In data set [4], B10 came in with an EC50 (nM), cAMP expression assay of 5.8 nM.

B11: GLP-2 mimetibody Pro substitution variant SEQ ID NO: 44 (Fc fusion, not shown: a dimerising Fc or GST)
chain: B7 chain with S47P
In data set [4], B11 returned an EC50 (nM), cAMP expression assay of 7.7 nM.

B12: SEQ ID NO: 10: A2G GLP-2 mimetibody linker variant; core HGDGSFSDEMNTILDNLAARDFINWLIQTKITDGGGGSGGGGSGGGGSGGGGSGGGGSCPPCP (protein)
chain: HGDGSFSDEMNTILDNLAARDFINWLIQTKITDGGGGSGGGGSGGGGSGGGGSGGGGSCPPCP
modifications: chains of the parent or of the whole protein
Take B12: in data set [3] (setting [8]), the EC50 came to 2.1 nM.

B13: A2G GLP-2 mimetibody linker length variant SEQ ID NO: 8 (Fc fusion, part only; not given: CH2 and CH3 domains, part only)
chain, part: HGDGSFSDEMNTILDNLAARDFINWLIQTKITDGGGGSGGGGSGGGGSCPPCP
modifications: cysteine pairing not given here; also: partial core, CH2-CH3 domains follow in the full mimetibody
In data set [4], B13 had an EC50 (nM), cAMP expression assay of 12.7 nM.
